Measurements reported in US20110171218A1.

Each substance was assayed against TNF-alpha (assay: cell-based or functional assay).
Set-up: unit not given beside the values

TNFR2-h(1)Fc, sequence (chain): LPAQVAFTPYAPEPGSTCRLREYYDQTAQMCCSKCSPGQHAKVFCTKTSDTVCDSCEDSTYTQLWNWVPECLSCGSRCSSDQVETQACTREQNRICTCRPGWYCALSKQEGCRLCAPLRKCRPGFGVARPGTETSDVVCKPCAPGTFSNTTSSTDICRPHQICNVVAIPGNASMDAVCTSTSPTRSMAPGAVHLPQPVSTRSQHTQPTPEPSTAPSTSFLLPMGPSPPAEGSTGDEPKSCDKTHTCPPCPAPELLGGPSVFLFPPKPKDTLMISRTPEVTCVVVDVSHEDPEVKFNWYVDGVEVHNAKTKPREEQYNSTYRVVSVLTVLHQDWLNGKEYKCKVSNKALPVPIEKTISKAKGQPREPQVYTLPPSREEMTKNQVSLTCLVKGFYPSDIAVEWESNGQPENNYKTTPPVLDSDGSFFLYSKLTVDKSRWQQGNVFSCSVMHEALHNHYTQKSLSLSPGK

Substance | IC50 (WEHI Assay), normalized (normalized to TNFR2-h(1)Fc wt)
D47N S202N TNFR2-h(1)Fc (Fc fusion) | 1.1
D47N TNFR2-h(1)Fc (Fc fusion) | 1.9
D47N/E155N TNFR2-h(1)Fc (Fc fusion) | 1.6
D47N/G253N TNFR2-h(1)Fc (Fc fusion) | 3
E155N G253N TNFR2-h(1)Fc (Fc fusion) | 0.57
E155N S202N G253N TNFR2-h(1)Fc (Fc fusion) | 0.25
S202N G253N TNFR2-h(1)Fc (Fc fusion) | 0.23
T203N P205S TNFR2-h(1)Fc (Fc fusion) | 0.29
T222N TNFR2-h(1)Fc (Fc fusion) | 0.25
TNFR2-h(1)Fc (Fc fusion) | 1
